According to patent US20230242658A1 (published 2023):
Substitutions are numbered along the chain they refer to.

B1: PR007133 (bispecific antibody, human IgG1, kappa)
light: DIQMTQSPSTLSASVGDRVTVTCRASQSIYIWLAWYQQKPGKAPNLLIYKASSLETGVPSRFSGSGSGTEFTLTISSLQPDDFATYYCQQYYGSSRTFGQGTKVEIKRTVAAPSVFIFPPSDEQLKSGTASVVCLLNNFYPREAKVQWKVDNALQSGNSQESVTEQDSKDSTYSLSSTLTLSKADYEKHKVYACEVTHQGLSSPVTKSFNRGEC
heavy: EVQLVESGGGLVQPGGSLRLSCAASGFTFSSYWMSWVRQAPGKGLEWVANIKQEGSEKYYVDSVKGRFTISRDNAKNSLYLQMNSLRAEDTAVYYCARDRAVAGAFDIWGQGTMVTVSSASTKGPSVFPLAPSSKSTSGGTAALGCLVKDYFPEPVTVSWNSGALTSGVHTFPAVLQSSGLYSLSSVVTVPSSSLGTQTYICNVNHKPSNTKVDKKVEPKSCDKTHTCPPCPAPEAAGAPSVFLFPPKPKDTLMISRTPEVTCVVVDVSHEDPEVKFNWYVDGVEVHNAKTKPREEQYNSTYRVVSVLTVLHQDWLNGKEYKCKVSNKALPAPIEKTISKAKGQPREPQVYTLPPSREEMTKNQVSLTCLVKGFYPSDIAVEWESNGQPENNYKTTPPVLDSDGSFFLYSKLTVDKSRWQQGNVFSCSVMHEALHNHYTQKSLSLSPGGGSGGSEVQLEESGGGLVKPGGSLRLSCAASGFTFSDYYMSWFRQAPGKGLEWVSYISSSGSITDYADAVKGRFNISRDNAKNSLYLQMNSLRAEDTAVYYCAREREAVAGTLDFDNWGQGTLVTVSS
notes: PD-L1x4-1BB IgG-VH: PR000265 + VH of PR007287 at heavy-chain C-terminus
B2: PR007142 (bispecific antibody, human IgG1, kappa)
light: B1 light
heavy: EVQLVESGGGLVQPGGSLRLSCAASGFTFSSYWMSWVRQAPGKGLEWVANIKQEGSEKYYVDSVKGRFTISRDNAKNSLYLQMNSLRAEDTAVYYCARDRAVAGAFDIWGQGTMVTVSSASTKGPSVFPLAPSSKSTSGGTAALGCLVKDYFPEPVTVSWNSGALTSGVHTFPAVLQSSGLYSLSSVVTVPSSSLGTQTYICNVNHKPSNTKVDKKVEPKSCDKTHTCPPCPAPEAAGAPSVFLFPPKPKDTLMISRTPEVTCVVVDVSHEDPEVKFNWYVDGVEVHNAKTKPREEQYNSTYRVVSVLTVLHQDWLNGKEYKCKVSNKALPAPIEKTISKAKGQPREPQVYTLPPSREEMTKNQVSLTCLVKGFYPSDIAVEWESNGQPENNYKTTPPVLDSDGSFFLYSKLTVDKSRWQQGNVFSCSVMHEALHNHYTQKSLSLSPGGGSGGSEVQLVESGGGLVKPGGSLRLSCAASGFTFSDYYMSWIRQAPGKGLEWVSYISNNGSTIYYADSVKGRFTISRDNAKNSLYLQMNSLRAEDTAVYYCARVRPGGSGNYWDWFDPWGQGTMVTVSS
notes: PD-L1x4-1BB IgG-VH: PR000265 + VH of PR007295 at heavy-chain C-terminus
B3: PR007138 (bispecific antibody, human IgG1, kappa)
light: B1 light
heavy: B2 heavy with A477V, A478T, S489N, L499Q, N507G, M573P
notes: PD-L1x4-1BB IgG-VH: PR000265 + VH of PR007291 at heavy-chain C-terminus
B4: PR007143 (bispecific antibody, human IgG1, kappa)
light: B1 light
heavy: B1 heavy with E459V, A477V, S507G, S510T, I511T, T512I, A517S, N523T, L571P
notes: PD-L1x4-1BB IgG-VH: PR000265 + VH of PR007296 at heavy-chain C-terminus
B5: PR007139 (bispecific antibody, human IgG1, kappa)
light: B1 light
heavy: B1 heavy with E459V, F491I, I511T, T512I, A517S, N523T, A556E, F563Y
notes: PD-L1x4-1BB IgG-VH: PR000265 + VH of PR007292 at heavy-chain C-terminus
B6: PR007141 (bispecific antibody, human IgG1, kappa)
light: B1 light
heavy: B1 heavy with E459V, A477V, S507G, S510T, I511T, T512I, A517S, N523T, A556P
notes: PD-L1x4-1BB IgG-VH: PR000265 + VH of PR007294 at heavy-chain C-terminus
B7: PR007149 (bispecific antibody, human IgG1, kappa)
light: B1 light
heavy: B2 heavy with A477T, A478T, S489N, I491V, M573P
notes: PD-L1x4-1BB IgG-VH: PR000265 + VH of PR007300 at heavy-chain C-terminus
B8: PR007145 (bispecific antibody, human IgG1, kappa)
light: B1 light
heavy: B2 heavy with N507R, N508S, M573L
notes: PD-L1x4-1BB IgG-VH: PR000265 + VH of PR007297 at heavy-chain C-terminus
B9: PR007137 (bispecific antibody, human IgG1, kappa)
light: B1 light
heavy: EVQLVESGGGLVQPGGSLRLSCAASGFTFSSYWMSWVRQAPGKGLEWVANIKQEGSEKYYVDSVKGRFTISRDNAKNSLYLQMNSLRAEDTAVYYCARDRAVAGAFDIWGQGTMVTVSSASTKGPSVFPLAPSSKSTSGGTAALGCLVKDYFPEPVTVSWNSGALTSGVHTFPAVLQSSGLYSLSSVVTVPSSSLGTQTYICNVNHKPSNTKVDKKVEPKSCDKTHTCPPCPAPEAAGAPSVFLFPPKPKDTLMISRTPEVTCVVVDVSHEDPEVKFNWYVDGVEVHNAKTKPREEQYNSTYRVVSVLTVLHQDWLNGKEYKCKVSNKALPAPIEKTISKAKGQPREPQVYTLPPSREEMTKNQVSLTCLVKGFYPSDIAVEWESNGQPENNYKTTPPVLDSDGSFFLYSKLTVDKSRWQQGNVFSCSVMHEALHNHYTQKSLSLSPGGGSGGSEVQLVESGGGVVQPGRSLRLSCAASGFTFSDYYMSWFRQAPGKGLEWVSYISSSGTTIDYADSVKGRFTISRDNAKNSLYLQMNSLRAEDTAVYYCAREREEVAGTLDFDYWGQGTPVTVSS
notes: PD-L1x4-1BB IgG-VH: PR000265 + VH of PR007290 at heavy-chain C-terminus
B10: PR007146 (bispecific antibody, human IgG1, kappa)
light: B1 light
heavy: B1 heavy with E459V, F491V, I511T, T512I, A517S, N523T, Y534F, Q536E, A556E
notes: PD-L1x4-1BB IgG-VH: PR000265 + VH of PR007298 at heavy-chain C-terminus
B11: PR007135 (bispecific antibody, human IgG1, kappa)
light: B1 light
heavy: B1 heavy with E459V, S507G, T512I, A517S, N523T, A551S, N565Y
notes: PD-L1x4-1BB IgG-VH: PR000265 + VH of PR007288 at heavy-chain C-terminus
B12: PR007295 (antibody, human IgG1, V domains shown)
VH: EVQLVESGGGLVKPGGSLRLSCAASGFTFSDYYMSWIRQAPGKGLEWVSYISNNGSTIYYADSVKGRFTISRDNAKNSLYLQMNSLRAEDTAVYYCARVRPGGSGNYWDWFDPWGQGTMVTVSS
notes: HCAb, heavy chain only, human IgG1 Fc; also called R1016P147A09
B13: PR007297 (antibody, human IgG1, V domains shown)
VH: B12 VH with N53R, N54S, M119L
notes: HCAb, heavy chain only, human IgG1 Fc; also called R1016P149F10
B14: PR007291 (antibody, human IgG1, V domains shown)
VH: B12 VH with A23V, A24T, S35N, L45Q, N53G, M119P
notes: HCAb, heavy chain only, human IgG1 Fc; also called R1016P145C07
B15: PR007300 (antibody, human IgG1, V domains shown)
VH: B12 VH with A23T, A24T, S35N, I37V, M119P
notes: HCAb, heavy chain only, human IgG1 Fc; also called R1016P156E05
B16: PR007299 (antibody, human IgG1, V domains shown)
VH: EVQLVESGGGLVKPGGSLRLSCAASGFTFSDYQMSWLRQAPGKGLEWVSYISSSGRTIYYADSVKGRFTISRDNAKNSVSLQMNSLRAEDTAVYYCAREGRFFPGQGTPVTVSS
notes: HCAb, heavy chain only, human IgG1 Fc; also called R1016P149H12
B17: PR007296 (antibody, human IgG1, V domains shown)
VH: EVQLVESGGGLVKPGGSLRLSCVASGFTFSDYYMSWFRQAPGKGLEWVSYISGSGTTIDYADSVKGRFTISRDNAKNSLYLQMNSLRAEDTAVYYCAREREAVAGTLDFDNWGQGTPVTVSS
notes: HCAb, heavy chain only, human IgG1 Fc; also called R1016P147B10
B18: PR007286 (antibody, human IgG1, V domains shown)
VH: EVQLVESGGGLVKPGGSLRLSCAASGFTFSDYYMSWIRQAPGKGLEWVSYISSSGSTIYYADSVKGRFTISRDNAKNSLYLQMNSLRAEDTAVYYCARVKPVAGTWDWFDPWGQGTPVTVSS
notes: HCAb, heavy chain only, human IgG1 Fc; also called R1016P142D03

Molecular target: T1, human PD-L1 on CHO-K1 cells (human, UniProt Q9NZQ7 19-290)
T1 construct: whole, on cells; also called CHO-K1/hPDL1; CHO-K1/hPD-L1
Assay: FACS, CHO-K1/hPD-L1 cells

T1 sequence (Q9NZQ7 19-290): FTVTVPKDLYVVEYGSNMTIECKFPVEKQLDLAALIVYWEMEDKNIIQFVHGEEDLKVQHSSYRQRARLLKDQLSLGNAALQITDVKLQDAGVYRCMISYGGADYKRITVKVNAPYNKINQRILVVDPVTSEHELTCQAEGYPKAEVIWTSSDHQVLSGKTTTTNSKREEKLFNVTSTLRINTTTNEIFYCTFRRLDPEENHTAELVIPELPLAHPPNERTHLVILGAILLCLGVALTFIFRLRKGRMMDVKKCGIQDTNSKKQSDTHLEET

| Binder | binding result |
| --- | --- |
| B1 | binds |
| B2 | binds |
| B3 | binds |
| B4 | binds |
| B5 | binds |
| B6 | binds |
| B7 | binds |
| B8 | binds |
| B9 | binds |
| B10 | binds |
| B11 | binds |

Molecular target: T2, human 4-1BB on CHO-K1 cells (human, UniProt Q07011 24-255)
T2 construct: whole, on cells; also called CHO-K1/hu 4-1BB; CHO-K1/hu4-1BB
Assay: FACS, CHO-K1/hu 4-1BB cells

T2 sequence (Q07011 24-255): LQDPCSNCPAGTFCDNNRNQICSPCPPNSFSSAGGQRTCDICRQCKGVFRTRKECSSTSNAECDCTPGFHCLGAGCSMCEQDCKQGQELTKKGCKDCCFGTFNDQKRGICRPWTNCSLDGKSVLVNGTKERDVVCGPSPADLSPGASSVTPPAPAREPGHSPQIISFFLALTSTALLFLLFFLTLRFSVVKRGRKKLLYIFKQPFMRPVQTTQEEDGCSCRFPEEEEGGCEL

| Binder | binding result |
| --- | --- |
| B12 | binds |
| B13 | binds |
| B14 | binds |
| B15 | binds |
| B16 | binds |
| B17 | binds |
| B18 | binds |

Molecular target: T2, human 4-1BB on CHO-K1 cells
Assay: FACS, CHO-K1/hu4-1BB cells
Description: The binding abilities of the antibody molecules to a CHO-K1 cell strain highly expressing human 4-1BB (CHO-K1/hu4-1BB, GenScript, M00538) and a CHO-K1 cell strain highly expressing cynomolgus monkey 4-1BB (CHO-K1/cyno4-1BB, GenScript, M00569) were determined by flow cytometry FACS. Specifically, the cells were digested and resuspended in a complete medium, and the cell density was adjusted to 2×10⁶ cells/mL. Then, the cells were seeded in a 96-well V-bottom plate (Corning, #3894) at 100 μL/well (2×10⁵ cells/well) and centrifuged at 4° C. for 5 min, and the supernatant was discarded. Then, the serially diluted antibody molecules were added to the 96-well plate at 100 μL/well, and the mixtures were well mixed. The antibody molecules might serially diluted 3-fold from the highest final concentration 200 nM to obtain a total of 12 concentrations. hIgG1 iso (CrownBio, #C0001) was used as an isotype control. The cells were incubated at 4° C. for 1 h away from light. Then, the cells in each well were rinsed twice with 100 μL of pre-cooled FACS buffer (PBS buffer containing 0.5% BSA) and centrifuged at 500 g at 4° C. for 5 min, and then the supernatant was discarded. […] Then, the cells in each well were then rinsed twice with 200 μL of pre-cooled FACS buffer and centrifuged at 500 g at 4° C. for 5 min, and then the supernatant was discarded. Finally, a pre-cooled FACS buffer was added at 200 μL/well to resuspend the cells. The fluorescence signal values were read using a BD FACS CANTOII flow cytometer.

| Binder | binding result |
| --- | --- |
| B1 | binds |
| B2 | binds |
| B3 | binds |
| B4 | binds |
| B5 | binds |
| B6 | binds |
| B7 | binds |
| B8 | binds |
| B9 | binds |
| B10 | binds |
| B11 | binds |

Molecular target: 4-1BB on HEK293/4-1BB/NF-kb reporter cells
Assay: cell-based or functional assay

| Binder | EC50, NF-kb luciferase reporter, CHO-K1/CD32b crosslinking |
| --- | --- |
| B12 | < 0.8 nM |
| B13 | < 0.8 nM |
| B14 | < 0.8 nM |
| B15 | < 0.8 nM |
| B16 | < 0.8 nM |
| B17 | < 0.8 nM |
| B18 | < 0.8 nM |
